Consider one substance from paper PMC10204484.

This experiment has as its target anti-DENV antibody with the 3Cam2 variable region and the LALA Fc variant (human).

Regarding “mouse C1q (from UniProt P98086 23-245; P14106 26-253; Q02105 30-246) (complex)”, the C3b ELISA (complement activation) on plate-immobilised antibody incubated with AG129 mouse serum; absorbance ratio versus the well without antibody immobilization is 1.5 fold.
